Measurements: patent US20260265358A1 (BYOMASS, published 2026)
Several values for one entry are separate records, joined by “and”; a condition that tells them apart may be missing. Identical values can stand only once.

Tests used:
Human Activin A Fc [1] = target: T1, Human Activin A Fc (human, UniProt P03970 309-424 (pig entry)); test: Octet BLI, IgG, avid
T1 construct: also called human Activin A-Fc fusion; human Activin A-Fc antigen; not shown: Fc part
T1 sequence: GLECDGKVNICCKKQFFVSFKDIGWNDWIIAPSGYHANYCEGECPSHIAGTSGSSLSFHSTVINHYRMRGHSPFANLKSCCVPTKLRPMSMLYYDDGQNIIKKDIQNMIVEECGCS
Procedure: ForteBio affinity measurements were performed on an Octet HTX generally as previously described (see, e.g., Estep et al, Mabs 5(2), 270-278 (2013)). Briefly, ForteBio affinity measurements were performed by loading IgGs on-line onto AHC sensors. Sensors were equilibrated off-line in assay buffer for 30 min and then monitored on-line for 60 seconds for baseline establishment. Sensors with loaded IgGs were exposed to 100 nM antigen for 3 minutes, and afterwards were transferred to assay buffer for 3 min for off-rate measurement. All kinetics were analyzed using the 1:1 binding model.
Binding affinity and epitope binning assays were performed with a ForteBio instrument as described herein.

Human GDNF = target: T2, Human GDNF (human, UniProt P39905 78-211); test: Octet BLI, IgG, avid
T2 sequence (looked up): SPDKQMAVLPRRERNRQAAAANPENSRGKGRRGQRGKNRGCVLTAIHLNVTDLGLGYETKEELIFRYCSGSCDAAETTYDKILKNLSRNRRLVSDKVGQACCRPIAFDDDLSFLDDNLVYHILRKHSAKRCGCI

GDF15 Fc = target: T3, GDF15 Fc (UniProt Q99988 197-308, limits assumed); test: Octet BLI, IgG, avid
T3 construct: not shown: Fc part
T3 sequence (looked up): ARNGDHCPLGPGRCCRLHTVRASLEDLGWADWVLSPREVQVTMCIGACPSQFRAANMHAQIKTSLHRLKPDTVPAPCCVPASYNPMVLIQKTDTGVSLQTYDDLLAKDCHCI

Human GDF11 = Human GDF11 (human, UniProt O95390 299-407); test: Octet BLI, IgG, avid
Sequence of Human GDF11 (O95390 299-407 limits assumed): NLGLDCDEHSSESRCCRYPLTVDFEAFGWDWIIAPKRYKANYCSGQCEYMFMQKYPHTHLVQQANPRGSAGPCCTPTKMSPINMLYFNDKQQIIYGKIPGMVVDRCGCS

Human GDF8 = Human GDF8 (human, UniProt O14793 267-375); test: Octet BLI, IgG, avid
BMP10 = target: T4, BMP10 (UniProt O95393 317-424); test: Octet BLI, IgG, avid
T4 sequence (looked up): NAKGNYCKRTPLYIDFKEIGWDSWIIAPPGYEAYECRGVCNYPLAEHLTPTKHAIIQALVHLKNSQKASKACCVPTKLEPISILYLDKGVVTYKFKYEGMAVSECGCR

BMP9 = target: T5, BMP9 (UniProt Q9UK05 320-429); test: Octet BLI, IgG, avid
T5 sequence (looked up): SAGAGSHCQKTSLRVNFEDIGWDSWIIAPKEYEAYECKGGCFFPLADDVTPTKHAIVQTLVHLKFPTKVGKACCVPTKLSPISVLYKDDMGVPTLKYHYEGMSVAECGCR

Human GDF10 = target: T6, Human GDF10 (human, UniProt P55107 369-478); test: Octet BLI, IgG, avid
T6 sequence (looked up): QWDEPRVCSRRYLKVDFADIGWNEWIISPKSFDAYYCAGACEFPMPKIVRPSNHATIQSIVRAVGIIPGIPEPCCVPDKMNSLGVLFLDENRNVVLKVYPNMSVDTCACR

Activin B = target: T7, Activin B (UniProt P09529 293-407); test: Octet BLI, IgG, avid
T7 sequence (looked up): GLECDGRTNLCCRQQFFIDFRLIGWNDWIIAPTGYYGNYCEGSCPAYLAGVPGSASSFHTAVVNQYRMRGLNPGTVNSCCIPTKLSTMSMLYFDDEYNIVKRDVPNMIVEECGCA

Human Activin A Fc [2] = target: T1, Human Activin A Fc; test: KD with 5% HSA, method not stated
Human Activin A Fc [3] = target: T1, Human Activin A Fc; test: KD with 0.1% BSA, method not stated
Human Activin A Fc [4] = target: T1, Human Activin A Fc; test: KD with 0.1% HSA, method not stated
Human Activin A Fc [5] = target: T1, Human Activin A Fc; test: KD with 0.1% BSA, method not stated; with 0.1% BSA
Human Activin B Fc [6] = target: T8, Human Activin B Fc (human, UniProt P09529 293-407, limits assumed); test: KD with 5% HSA, method not stated
T8 construct: not shown: Fc part
T8 sequence (looked up): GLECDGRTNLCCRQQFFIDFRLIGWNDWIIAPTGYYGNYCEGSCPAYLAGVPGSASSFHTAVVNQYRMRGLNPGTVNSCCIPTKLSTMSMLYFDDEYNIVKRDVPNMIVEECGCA

Human GDF-11 Fc [7] = target: T9, Human GDF-11 Fc (human, UniProt O95390 299-407, limits assumed); test: KD with 0.1% BSA, method not stated
T9 construct: not shown: Fc part
T9 sequence (O95390 299-407 limits assumed): as the sequence (O95390 299-407 limits assumed) above

Human Activin B Fc [8] = target: T8, Human Activin B Fc; test: KD with 0.1% BSA, method not stated
Human GDF-11 Fc [9] = target: T9, Human GDF-11 Fc; test: KD with 0.1% HSA, method not stated
Human Activin B Fc [10] = target: T8, Human Activin B Fc; test: KD with 0.1% HSA, method not stated
Human Activin A Fc [11] = target: T1, Human Activin A Fc; test: Octet BLI, Fab, monovalent
[12] = target: T10, biotinylated Human Activin A (human, UniProt P03970 309-424 (pig entry), biotinylated (EZ-Link Sulfo-NHS-Biotinylation Kit)); test: SPR (Biacore 8K), antigen captured, Fab analyte
T10 sequence: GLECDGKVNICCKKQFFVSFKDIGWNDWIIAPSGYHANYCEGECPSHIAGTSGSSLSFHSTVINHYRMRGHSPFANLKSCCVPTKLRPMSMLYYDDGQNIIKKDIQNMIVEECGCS
Procedure: (§1) Kinetic analysis was conducted at 25° C. in HBS-EP+ running buffer (10 mM HEPES pH 7.4, 150 mM NaCl, 3 mM EDTA, 0.05% Surfactant P20) using a Biacore 8K optical biosensor (Cytiva, Marlborough, MA). The sample compartment was maintained at 10° C. for the duration of the experiment. The Biacore 8K can analyze up to 8 separate interactions in a single cycle.
(§2) Each experiment cycle began with an injection (300 s at 2 μL/min) overflow cells 1 and 2 of a 1:100 solution of biotin CAPture reagent (Cytiva) in running buffer. This was followed by an injection (45 s at 10.0 μL/min) of biotinylated human ACTIVIN A (5 nM) overflow cell 2. Upon capture of ACTIVIN A to the sensor surface, a single concentration of Fab ranging from 0.111-81.0 nM was injected (300 s at 30 μL/min) overflow cells 1 and 2. The dissociation of the antibodies were monitored for 3420 s. Finally, an injection (120 s at 10 μL/min) of regeneration solution (6 M Guanidine-HCl in 0.25 M NaOH) overflow cells 1 and 2 prepared the sensor surface for another cycle. Several blank buffer samples were injected (300 s at 30 μL/min) overflow cells 1 and 2 throughout the duration of the experiment and used for reference surface subtraction—each were monitored for the same amount of dissociation time (3420 s) and regenerated under the same conditions as those for the Fab sample injections.
(§3) The anti-Activin antibodies identified in Example 1 were characterized. First, binding kinetics of the anti-Activin antibodies was assessed with a Surface Plasmon Resonance assay (Biacore).

[13] = target: T10, biotinylated Human Activin A; test: SPR (Biacore 8K), antigen captured, Fab analyte; second, unlabelled row under Clone B (Rmax 38.1)
Procedure: as §1
as §2, with “Finally, an injection (120 s at 10 μL/min) of regeneration solution (6 M Guanidine-HCl in 0.25 M NaOH) overflow cells 1 and 2 prepared the sensor surface for another cycle.” left out
as §3

Row | Binder | Kd (Human Activin A Fc [1]) [nM] | binding result (Human GDNF) | binding result (GDF15 Fc) | binding result (Human GDF8) | binding result (BMP10) | binding result (BMP9) | binding result (Human GDF10) | Kd (Human Activin A Fc [2]) [nM] | Kd (Human Activin A Fc [4]) [nM] | other results
1 | anti-Activin A antibody Clone Q (IgG) (antibody, V domains shown, IgG format; also called Antibody Q) VH: QVQLVQSGAEVKKPGSSVKVSCKASGGSFSPYTWSWVRQAPGQGLEWMGGIIPISGTANTAQKFQGRVTITADESTSTAYMELSSLRSEDTAVYYCARGGPLSGWRASYYYWGQGTLVTVSS VL: not shown | 0.585 | no binding (tested: 100 nM antigen) | no binding (tested: 100 nM antigen) | no binding (tested: 100 nM antigen) | no binding (tested: 100 nM antigen) | no binding (tested: 100 nM antigen) | no binding (tested: 100 nM antigen) | 0.189 | 0.156 | binding result (Human GDF11): no binding (tested: 100 nM antigen); binding result (Activin B): no binding (tested: 100 nM antigen); Kd (Human Activin A Fc [3]): 0.128 nM
2 | anti-Activin A antibody Clone B (IgG) (antibody, V domains shown, IgG format; also called Antibody B) VH: QVQLVQSGAEVKKPGASVKVSCKASGYTFIGYDMHWVRQAPGQGLEWMGVINPSSGGTNYAQKFQGRVTMTRDTSISTAYMELSRLRSDDTAVYYCARARDIAALGLGAFDYWGQGTLVTVSS VL: not shown | 0.527 | no binding (tested: 100 nM antigen) | no binding (tested: 100 nM antigen) | no binding (tested: 100 nM antigen) | no binding (tested: 100 nM antigen) | no binding (tested: 100 nM antigen) | no binding (tested: 100 nM antigen) | 0.217 | 0.138 | Kd (Human Activin A Fc [5]): 0.138 nM; Kd (Human GDF11): 21 nM; Kd (Activin B): 46.8 nM; Kd (Human Activin B Fc [6]): 10 nM; Kd (Human GDF-11 Fc [7]): 18.9 nM; Kd (Human Activin B Fc [8]): 3.37 nM; Kd (Human GDF-11 Fc [9]): 18.3 nM; Kd (Human Activin B Fc [10]): 2.96 nM
3 | Fab of anti-Activin A antibody Clone B (Fab, V domains shown, Fab format; only VH and VL are tied to the clone; also called Fab of Clone B) VH: QVQLVQSGAEVKKPGASVKVSCKASGYTFIGYDMHWVRQAPGQGLEWMGVINPSSGGTNYAQKFQGRVTMTRDTSISTAYMELSRLRSDDTAVYYCARARDIAALGLGAFDYWGQGTLVTVSS VL: not shown |  |  |  |  |  |  |  |  |  | Kd (Human Activin A Fc [11]): 0.309 nM; Kd [12]: 0.00981 nM; koff [12]: 2.27e-05 s⁻¹ and 1.58e-05 s⁻¹; kon [12]: 2.31e+06 M⁻¹ s⁻¹ and 2.56e+06 M⁻¹ s⁻¹; Kd [13]: 0.00617 nM
